# Measured values as given in IntAct's records for PubMed 26635368.
# B1: Sprouty-related, EVH1 domain-containing protein 1 (Homo sapiens), Q7Z699 (parent)
# chain: MSEETATSDNDNSYARVRAVVMTRDDSSGGWLPLGGSGLSSVTVFKVPHQEENGCADFFIRGERLRDKMVVLECMLKKDLIYNKVTPTFHHWKIDDKKFGLTFQSPADARAFDRGIRRAIEDISQGCPESKNEAEGADDLQANEEDSSSSLVKDHLFQQETVVTSEPYRSSNIRPSPFEDLNARRVYMQSQANQITFGQPGLDIQSRSMEYVQRQISKECGSLKSQNRVPLKSIRHVSFQDEDEIVRINPRDILIRRYADYRHPDMWKNDLERDDADSSIQFSKPDSKKSDYLYSCGDETKLSSPKDSVVFKTQPSSLKIKKSKRRKEDGERSRCVYCQERFNHEENVRGKCQDAPDPIKRCIYQVSCMLCAESMLYHCMSDSEGDFSDPCSCDTSDDKFCLRWLALVALSFIVPCMCCYVPLRMCHRCGEACGCCGGKHKAAG
# Variants of: B1
# Settings: with nf1_human NF1, P21359
# nf1_human NF1, P21359, sequence (P21359 whole entry): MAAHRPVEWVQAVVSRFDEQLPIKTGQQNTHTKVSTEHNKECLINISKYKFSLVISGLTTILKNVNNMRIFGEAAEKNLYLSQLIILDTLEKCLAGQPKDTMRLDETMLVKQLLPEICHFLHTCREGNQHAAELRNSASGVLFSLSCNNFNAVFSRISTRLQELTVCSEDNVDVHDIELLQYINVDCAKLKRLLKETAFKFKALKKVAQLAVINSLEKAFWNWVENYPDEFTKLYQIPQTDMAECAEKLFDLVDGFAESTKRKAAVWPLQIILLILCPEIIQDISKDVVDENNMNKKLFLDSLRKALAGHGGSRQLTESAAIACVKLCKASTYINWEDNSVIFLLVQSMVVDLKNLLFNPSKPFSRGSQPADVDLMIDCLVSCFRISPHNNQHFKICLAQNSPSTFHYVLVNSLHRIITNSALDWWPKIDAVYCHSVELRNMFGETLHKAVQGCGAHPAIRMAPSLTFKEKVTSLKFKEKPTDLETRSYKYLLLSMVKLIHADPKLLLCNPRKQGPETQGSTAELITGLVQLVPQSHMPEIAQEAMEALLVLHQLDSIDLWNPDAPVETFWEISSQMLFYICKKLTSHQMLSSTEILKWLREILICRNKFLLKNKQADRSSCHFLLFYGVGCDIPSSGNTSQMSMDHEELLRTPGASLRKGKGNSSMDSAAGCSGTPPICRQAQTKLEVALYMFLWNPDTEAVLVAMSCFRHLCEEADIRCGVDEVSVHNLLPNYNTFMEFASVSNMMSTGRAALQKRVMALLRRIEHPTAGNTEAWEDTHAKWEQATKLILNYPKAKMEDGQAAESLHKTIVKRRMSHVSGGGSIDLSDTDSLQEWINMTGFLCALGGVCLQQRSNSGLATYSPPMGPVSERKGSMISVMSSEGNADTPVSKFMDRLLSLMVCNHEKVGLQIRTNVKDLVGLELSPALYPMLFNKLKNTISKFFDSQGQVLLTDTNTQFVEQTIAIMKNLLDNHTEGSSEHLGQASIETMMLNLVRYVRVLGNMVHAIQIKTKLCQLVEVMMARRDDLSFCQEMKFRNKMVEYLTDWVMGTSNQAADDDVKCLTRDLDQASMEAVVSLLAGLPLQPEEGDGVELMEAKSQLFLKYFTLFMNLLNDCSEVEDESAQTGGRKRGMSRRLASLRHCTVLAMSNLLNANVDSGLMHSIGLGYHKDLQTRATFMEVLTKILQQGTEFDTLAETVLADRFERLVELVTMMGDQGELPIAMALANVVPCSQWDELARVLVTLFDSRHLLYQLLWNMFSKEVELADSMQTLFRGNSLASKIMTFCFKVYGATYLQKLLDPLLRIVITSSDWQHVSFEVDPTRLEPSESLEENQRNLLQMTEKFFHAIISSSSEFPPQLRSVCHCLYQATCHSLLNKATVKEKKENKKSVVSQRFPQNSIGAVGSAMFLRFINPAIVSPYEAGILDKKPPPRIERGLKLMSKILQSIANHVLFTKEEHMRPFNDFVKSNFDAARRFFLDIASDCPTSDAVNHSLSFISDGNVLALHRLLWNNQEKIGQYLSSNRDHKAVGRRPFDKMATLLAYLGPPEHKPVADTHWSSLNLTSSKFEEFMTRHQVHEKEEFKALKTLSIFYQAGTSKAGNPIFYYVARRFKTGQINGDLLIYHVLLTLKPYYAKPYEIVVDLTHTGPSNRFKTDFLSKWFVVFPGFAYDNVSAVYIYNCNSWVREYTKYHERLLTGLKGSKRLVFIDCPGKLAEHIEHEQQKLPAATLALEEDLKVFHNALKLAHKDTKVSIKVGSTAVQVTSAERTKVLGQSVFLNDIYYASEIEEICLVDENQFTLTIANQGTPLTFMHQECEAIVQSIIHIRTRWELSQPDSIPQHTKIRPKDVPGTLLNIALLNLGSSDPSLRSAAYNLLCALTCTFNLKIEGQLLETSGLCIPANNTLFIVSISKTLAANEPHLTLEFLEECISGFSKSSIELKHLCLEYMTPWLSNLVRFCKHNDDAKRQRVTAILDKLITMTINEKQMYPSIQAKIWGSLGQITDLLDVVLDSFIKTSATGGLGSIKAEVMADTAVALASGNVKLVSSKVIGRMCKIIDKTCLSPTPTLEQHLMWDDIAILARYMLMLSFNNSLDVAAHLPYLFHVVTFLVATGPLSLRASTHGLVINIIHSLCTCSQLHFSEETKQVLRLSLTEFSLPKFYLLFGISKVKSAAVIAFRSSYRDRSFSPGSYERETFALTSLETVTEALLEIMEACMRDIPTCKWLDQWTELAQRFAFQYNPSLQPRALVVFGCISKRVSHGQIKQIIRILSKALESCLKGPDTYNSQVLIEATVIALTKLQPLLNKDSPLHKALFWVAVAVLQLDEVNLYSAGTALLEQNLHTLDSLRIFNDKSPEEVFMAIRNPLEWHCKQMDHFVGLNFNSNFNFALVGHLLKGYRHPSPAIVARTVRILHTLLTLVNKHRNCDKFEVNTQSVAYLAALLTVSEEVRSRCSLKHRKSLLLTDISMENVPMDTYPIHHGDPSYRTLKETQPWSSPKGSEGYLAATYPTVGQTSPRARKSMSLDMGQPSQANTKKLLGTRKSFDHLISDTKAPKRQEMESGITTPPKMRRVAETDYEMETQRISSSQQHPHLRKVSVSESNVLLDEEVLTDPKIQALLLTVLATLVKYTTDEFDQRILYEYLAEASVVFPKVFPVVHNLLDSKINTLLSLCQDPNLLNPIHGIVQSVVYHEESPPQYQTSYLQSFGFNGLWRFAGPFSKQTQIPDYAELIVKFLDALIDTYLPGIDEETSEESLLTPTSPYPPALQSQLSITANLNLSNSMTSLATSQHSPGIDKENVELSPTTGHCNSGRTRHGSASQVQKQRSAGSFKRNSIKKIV
row,Variant,effect of a mutation on the interaction
1,MSEETATSDNDNSYARVRAVVMTRDDSSGGWLPLGGSGLSSITVFKVPHQEENGCADFFIRGERLRDKMVVLECMLKKDLIYNKVTPTFHHWKIDDKKFGLTFQSPADARAFDRGIRRAIEDISQGCPESKNEAEGADDLQANEEDSSSSLVKDHLFQQETVVTSEPYRSSNIRPSPFEDLNARRVYMQSQANQITFGQPGLDIQSRSMEYVQRQISKECGSLKSQNRVPLKSIRHVSFQDEDEIVRINPRDILIRRYADYRHPDMWKNDLERDDADSSIQFSKPDSKKSDYLYSCGDETKLSSPKDSVVFKTQPSSLKIKKSKRRKEDGERSRCVYCQERFNHEENVRGKCQDAPDPIKRCIYQVSCMLCAESMLYHCMSDSEGDFSDPCSCDTSDDKFCLRWLALVALSFIVPCMCCYVPLRMCHRCGEACGCCGGKHKAAG [V42I],with no effect
2,MSEETATSDKDNSYARVRAVVMTRDDSSGGWLPLGGSGLSSVTVFKVPHQEENGCADFFIRGERLRDKMVVLECMLKKDLIYNKVTPTFHHWKIDDKKFGLTFQSPADARAFDRGIRRAIEDISQGCPESKNEAEGADDLQANEEDSSSSLVKDHLFQQETVVTSEPYRSSNIRPSPFEDLNARRVYMQSQANQITFGQPGLDIQSRSMEYVQRQISKECGSLKSQNRVPLKSIRHVSFQDEDEIVRINPRDILIRRYADYRHPDMWKNDLERDDADSSIQFSKPDSKKSDYLYSCGDETKLSSPKDSVVFKTQPSSLKIKKSKRRKEDGERSRCVYCQERFNHEENVRGKCQDAPDPIKRCIYQVSCMLCAESMLYHCMSDSEGDFSDPCSCDTSDDKFCLRWLALVALSFIVPCMCCYVPLRMCHRCGEACGCCGGKHKAAG [N10K],with no effect
3,MSEETATSDNDNSYARVRAVVMTRDDSSGGWLPLGGSGLSSVTVFKVPHQEENGCADFFIRRERLRDKMVVLECMLKKDLIYNKVTPTFHHWKIDDKKFGLTFQSPADARAFDRGIRRAIEDISQGCPESKNEAEGADDLQANEEDSSSSLVKDHLFQQETVVTSEPYRSSNIRPSPFEDLNARRVYMQSQANQITFGQPGLDIQSRSMEYVQRQISKECGSLKSQNRVPLKSIRHVSFQDEDEIVRINPRDILIRRYADYRHPDMWKNDLERDDADSSIQFSKPDSKKSDYLYSCGDETKLSSPKDSVVFKTQPSSLKIKKSKRRKEDGERSRCVYCQERFNHEENVRGKCQDAPDPIKRCIYQVSCMLCAESMLYHCMSDSEGDFSDPCSCDTSDDKFCLRWLALVALSFIVPCMCCYVPLRMCHRCGEACGCCGGKHKAAG [G62R],decreasing interaction strength
4,MSEETATSDNDNSYARVRAVVMTRDDSSGGCLPLGGSGLSSVTVFKVPHQEENGCADFFIRGERLRDKMVVLECMLKKDLIYNKVTPTFHHWKIDDKKFGLTFQSPADARAFDRGIRRAIEDISQGCPESKNEAEGADDLQANEEDSSSSLVKDHLFQQETVVTSEPYRSSNIRPSPFEDLNARRVYMQSQANQITFGQPGLDIQSRSMEYVQRQISKECGSLKSQNRVPLKSIRHVSFQDEDEIVRINPRDILIRRYADYRHPDMWKNDLERDDADSSIQFSKPDSKKSDYLYSCGDETKLSSPKDSVVFKTQPSSLKIKKSKRRKEDGERSRCVYCQERFNHEENVRGKCQDAPDPIKRCIYQVSCMLCAESMLYHCMSDSEGDFSDPCSCDTSDDKFCLRWLALVALSFIVPCMCCYVPLRMCHRCGEACGCCGGKHKAAG [W31C],decreasing interaction strength
5,MSEETATSDNDNSYARVRAVVMTRDDSSGGLLPLGGSGLSSVTVFKVPHQEENGCADFFIRGERLRDKMVVLECMLKKDLIYNKVTPTFHHWKIDDKKFGLTFQSPADARAFDRGIRRAIEDISQGCPESKNEAEGADDLQANEEDSSSSLVKDHLFQQETVVTSEPYRSSNIRPSPFEDLNARRVYMQSQANQITFGQPGLDIQSRSMEYVQRQISKECGSLKSQNRVPLKSIRHVSFQDEDEIVRINPRDILIRRYADYRHPDMWKNDLERDDADSSIQFSKPDSKKSDYLYSCGDETKLSSPKDSVVFKTQPSSLKIKKSKRRKEDGERSRCVYCQERFNHEENVRGKCQDAPDPIKRCIYQVSCMLCAESMLYHCMSDSEGDFSDPCSCDTSDDKFCLRWLALVALSFIVPCMCCYVPLRMCHRCGEACGCCGGKHKAAG [W31L],disrupting interaction strength
6,MSEETATSDNDNSYARVRAVVMTRDDSSGRWLPLGGSGLSSVTVFKVPHQEENGCADFFIRGERLRDKMVVLECMLKKDLIYNKVTPTFHHWKIDDKKFGLTFQSPADARAFDRGIRRAIEDISQGCPESKNEAEGADDLQANEEDSSSSLVKDHLFQQETVVTSEPYRSSNIRPSPFEDLNARRVYMQSQANQITFGQPGLDIQSRSMEYVQRQISKECGSLKSQNRVPLKSIRHVSFQDEDEIVRINPRDILIRRYADYRHPDMWKNDLERDDADSSIQFSKPDSKKSDYLYSCGDETKLSSPKDSVVFKTQPSSLKIKKSKRRKEDGERSRCVYCQERFNHEENVRGKCQDAPDPIKRCIYQVSCMLCAESMLYHCMSDSEGDFSDPCSCDTSDDKFCLRWLALVALSFIVPCMCCYVPLRMCHRCGEACGCCGGKHKAAG [G30R],decreasing interaction strength
7,MSEETATSVNDNSYARVRAVVMTRDDSSGGWLPLGGSGLSSVTVFKVPHQEENGCADFFIRGERLRDKMVVLECMLKKDLIYNKVTPTFHHWKIDDKKFGLTFQSPADARAFDRGIRRAIEDISQGCPESKNEAEGADDLQANEEDSSSSLVKDHLFQQETVVTSEPYRSSNIRPSPFEDLNARRVYMQSQANQITFGQPGLDIQSRSMEYVQRQISKECGSLKSQNRVPLKSIRHVSFQDEDEIVRINPRDILIRRYADYRHPDMWKNDLERDDADSSIQFSKPDSKKSDYLYSCGDETKLSSPKDSVVFKTQPSSLKIKKSKRRKEDGERSRCVYCQERFNHEENVRGKCQDAPDPIKRCIYQVSCMLCAESMLYHCMSDSEGDFSDPCSCDTSDDKFCLRWLALVALSFIVPCMCCYVPLRMCHRCGEACGCCGGKHKAAG [D9V],with no effect
8,MSEETATSDNDNSYARVRAVVMTQDDSSGGWLPLGGSGLSSVTVFKVPHQEENGCADFFIRGERLRDKMVVLECMLKKDLIYNKVTPTFHHWKIDDKKFGLTFQSPADARAFDRGIRRAIEDISQGCPESKNEAEGADDLQANEEDSSSSLVKDHLFQQETVVTSEPYRSSNIRPSPFEDLNARRVYMQSQANQITFGQPGLDIQSRSMEYVQRQISKECGSLKSQNRVPLKSIRHVSFQDEDEIVRINPRDILIRRYADYRHPDMWKNDLERDDADSSIQFSKPDSKKSDYLYSCGDETKLSSPKDSVVFKTQPSSLKIKKSKRRKEDGERSRCVYCQERFNHEENVRGKCQDAPDPIKRCIYQVSCMLCAESMLYHCMSDSEGDFSDPCSCDTSDDKFCLRWLALVALSFIVPCMCCYVPLRMCHRCGEACGCCGGKHKAAG [R24Q],decreasing interaction strength
9,MSEETATSDNDNSYARVRAVVMTRDDSSGGWLPLGGSGLSSVTVFKVPHQEENGCADFFIRGERLRDKMVVLECMLKKDRIYNKVTPTFHHWKIDDKKFGLTFQSPADARAFDRGIRRAIEDISQGCPESKNEAEGADDLQANEEDSSSSLVKDHLFQQETVVTSEPYRSSNIRPSPFEDLNARRVYMQSQANQITFGQPGLDIQSRSMEYVQRQISKECGSLKSQNRVPLKSIRHVSFQDEDEIVRINPRDILIRRYADYRHPDMWKNDLERDDADSSIQFSKPDSKKSDYLYSCGDETKLSSPKDSVVFKTQPSSLKIKKSKRRKEDGERSRCVYCQERFNHEENVRGKCQDAPDPIKRCIYQVSCMLCAESMLYHCMSDSEGDFSDPCSCDTSDDKFCLRWLALVALSFIVPCMCCYVPLRMCHRCGEACGCCGGKHKAAG [L80R],decreasing interaction strength
10,MSEETATSDNDNSYARVRAVVMTRDDSSGGWLPLGGSGLSSVTDFKVPHQEENGCADFFIRGERLRDKMVVLECMLKKDLIYNKVTPTFHHWKIDDKKFGLTFQSPADARAFDRGIRRAIEDISQGCPESKNEAEGADDLQANEEDSSSSLVKDHLFQQETVVTSEPYRSSNIRPSPFEDLNARRVYMQSQANQITFGQPGLDIQSRSMEYVQRQISKECGSLKSQNRVPLKSIRHVSFQDEDEIVRINPRDILIRRYADYRHPDMWKNDLERDDADSSIQFSKPDSKKSDYLYSCGDETKLSSPKDSVVFKTQPSSLKIKKSKRRKEDGERSRCVYCQERFNHEENVRGKCQDAPDPIKRCIYQVSCMLCAESMLYHCMSDSEGDFSDPCSCDTSDDKFCLRWLALVALSFIVPCMCCYVPLRMCHRCGEACGCCGGKHKAAG [V44D],disrupting interaction strength
11,MSEETATSDNDNSYARVRAVVMTRDDSSGGWLPLGGSGLSSVTVFKVPHQEENGCADFFIRGERLRDKMVVLEFMLKKDLIYNKVTPTFHHWKIDDKKFGLTFQSPADARAFDRGIRRAIEDISQGCPESKNEAEGADDLQANEEDSSSSLVKDHLFQQETVVTSEPYRSSNIRPSPFEDLNARRVYMQSQANQITFGQPGLDIQSRSMEYVQRQISKECGSLKSQNRVPLKSIRHVSFQDEDEIVRINPRDILIRRYADYRHPDMWKNDLERDDADSSIQFSKPDSKKSDYLYSCGDETKLSSPKDSVVFKTQPSSLKIKKSKRRKEDGERSRCVYCQERFNHEENVRGKCQDAPDPIKRCIYQVSCMLCAESMLYHCMSDSEGDFSDPCSCDTSDDKFCLRWLALVALSFIVPCMCCYVPLRMCHRCGEACGCCGGKHKAAG [C74F],with no effect

# Variants of: B1
# Settings: with nf1_human NF1, P21359
# Remark: another data set of the same source
row,Variant,effect of a mutation on the interaction
1,MSEETATSDNDNSYARVRAVVMTRDDSSGGCLPLGGSGLSSVTVFKVPHQEENGCADFFIRGERLRDKMVVLECMLKKDLIYNKVTPTFHHWKIDDKKFGLTFQSPADARAFDRGIRRAIEDISQGCPESKNEAEGADDLQANEEDSSSSLVKDHLFQQETVVTSEPYRSSNIRPSPFEDLNARRVYMQSQANQITFGQPGLDIQSRSMEYVQRQISKECGSLKSQNRVPLKSIRHVSFQDEDEIVRINPRDILIRRYADYRHPDMWKNDLERDDADSSIQFSKPDSKKSDYLYSCGDETKLSSPKDSVVFKTQPSSLKIKKSKRRKEDGERSRCVYCQERFNHEENVRGKCQDAPDPIKRCIYQVSCMLCAESMLYHCMSDSEGDFSDPCSCDTSDDKFCLRWLALVALSFIVPCMCCYVPLRMCHRCGEACGCCGGKHKAAG [W31C],disrupting interaction strength
2,MSEETATSDNDNSYARVRAVVMTRDDSSGRWLPLGGSGLSSVTVFKVPHQEENGCADFFIRGERLRDKMVVLECMLKKDLIYNKVTPTFHHWKIDDKKFGLTFQSPADARAFDRGIRRAIEDISQGCPESKNEAEGADDLQANEEDSSSSLVKDHLFQQETVVTSEPYRSSNIRPSPFEDLNARRVYMQSQANQITFGQPGLDIQSRSMEYVQRQISKECGSLKSQNRVPLKSIRHVSFQDEDEIVRINPRDILIRRYADYRHPDMWKNDLERDDADSSIQFSKPDSKKSDYLYSCGDETKLSSPKDSVVFKTQPSSLKIKKSKRRKEDGERSRCVYCQERFNHEENVRGKCQDAPDPIKRCIYQVSCMLCAESMLYHCMSDSEGDFSDPCSCDTSDDKFCLRWLALVALSFIVPCMCCYVPLRMCHRCGEACGCCGGKHKAAG [G30R],disrupting interaction strength
